In US20250092143A1 (UNIVERSITY OF SOUTHERN CALIFORNIA, published 2025):

B1: PD-L2-hFc (Fc fusion, human, UniProt Q9BQ51 20-220, looked up)
chain: LFTVTVPKELYIIEHGSNVTLECNFDTGSHVNLGAITASLQKVENDTSPHRERATLLEEQLPLGKASFHIPQVQVRDEGQYQCIIIYGVAWDYKYLTLKVKASYRKINTHILKVPETDEVELTCQATGYPLAEVSWPNVSVPANTSHSRTPEGLYQVTSVLRLKPPPGRNFSCVFWNTHVRELTLASIDLQSQMEPRTHPT
notes: Bought from PeproTech; also called PD-L2-Fc; not shown: human Fc (hFc) of the bought reagent
B2: OX40-hFc (Fc fusion, human, UniProt P43489 29-214, looked up)
chain: LHCVGDTYPSNDRCCHECRPGNGMVSRCSRSQNTVCRPCGPGFYNDVVSSKPCKPCTWCNLRSGSERKQLCTATQDTVCRCRAGTQPLDSYKPGVDCAPCPPGHFSPGDNQACKPWTNCTLAGKHTLQPASNSSDAICEDRDPPATQPQETQGPPARPITVQPTEAWPRTSQGPSTRPVEVPGGRA
notes: Bought from BioLegend; also called OX40-Fc; biotinylated OX40-hFc; not shown: human Fc (hFc) of the bought reagent
B3: PD-L2 on IFN-γ stimulated BT-20 cells (ligand, human, UniProt Q9BQ51 20-273, looked up)
chain: LFTVTVPKELYIIEHGSNVTLECNFDTGSHVNLGAITASLQKVENDTSPHRERATLLEEQLPLGKASFHIPQVQVRDEGQYQCIIIYGVAWDYKYLTLKVKASYRKINTHILKVPETDEVELTCQATGYPLAEVSWPNVSVPANTSHSRTPEGLYQVTSVLRLKPPPGRNFSCVFWNTHVRELTLASIDLQSQMEPRTHPTWLLHIFIPFCIIAFIFIATVIALRKQLCQKLYSSKDTTKRPVTTTKREVNSAI
notes: whole, on cells; BT-20 cells also carry PD-L1 and EGFR; also called PD-L2^+ BT-20 cells

How the values were obtained:
[1] = target: T1, αCD3-αEGFR-PD-1-OX40L GEMINI-Exos (human); assay: assay not named
T1 construct: Engineered exosome from Expi293F cells co-transfected with the αCD3-αEGFR-PDGFR TMD and PD-1-CD9-OX40L constructs; Both fusions sit on the same exosome; also called genetically engineered multifunctional immune-modulating exosomes
Description: FIG. 3. […] (A) Immunoblot analysis of purified exosomes. […] Data are shown as mean±SD of duplicates. […] The levels of secreted IL-2 were measured by ELISA.
ELISA analysis of binding of engineered exosomes to ligands and receptors. […] High-binding 96 well plates (Greiner Bio-One, Monroe, NC) were coated with various concentrations of exosomes overnight at room temperature. Following extensive washing with PBST, wells were blocked with PBS containing 1% BSA for 2 hours at room temperature, followed by extensive washing with PBST. Corresponding ligands or receptors ([…]; PD-L1-hFc and PD-L2-hFc from PeproTech, Inc. and OX40-hFc from BioLegend) were added and incubated for 2 hours at room temperature, followed by extensive washing with PBST. Goat anti-human IgG-HRP was subsequently added for 1-hour incubation at room temperature, followed by extensive washing. QuantaBlu fluorogenic peroxidase substrate (Thermo Fisher Scientific, MA) was then added.

[2] = target: T1, αCD3-αEGFR-PD-1-OX40L GEMINI-Exos; assay: flow cytometry on BT-20 cells, anti-HA detection
Description: BT-20 cells were treated with 100 U/mL IFN-γ (BioLegend) for 2 days to induce expression of PD-L1. […] Briefly, cells (300,000 cells per tube) were stained with 100 μg mL⁻¹ of exosomes for 30 minutes at 4° C. Cells were washed three times with PBS containing 2% FBS and stained with an anti-HA antibody (2-2.2.14, from Thermo Fisher Scientific) for 30 minutes at 4° C. […] Thereafter, cells were washed and resuspended in PBS containing 2% FBS, followed by analysis using a BD Fortessa X20 flow cytometer. Data were processed by FlowJo_V10 software (Tree Star Inc., Ashland, OR).

Row | Binder | binding result [1] | binding result [2]
1 | B1 | binds | 
2 | B2 | binds | 
3 | B3 |  | binds
